The source of these data is publication PMC10515186.

In test [1] the target is SARS-CoV-2 spike protein (Hexapro S) (SARS-CoV-2). The test is described as follows: other fluorescence titration.
The target is the same in test [2].
The target is the same in test [3]. Kind of test: dynamic light scattering.

On to “SeTau-405 fluorescently labeled BOA (natural protein)”, for which the half-saturation point in test [1] lay in the range of 30 to 60 nM.

In turn, “Burkholderia oklahomensis agglutinin (BOA) (natural protein)” returned an EC50, plaque reduction assay, SARS-CoV-2 Munich isolate in Vero E6 cells in test [2] of 9 nM. For the same substance, the lowest lectin concentration with a significant increase in hydrodynamic radius in test [3] came out at 60 nM.

As to “Oscillatoria agardhii agglutinin (OAA) (natural protein)”, the lowest lectin concentration with a significant increase in hydrodynamic radius in test [3] is 125 nM.
